Numbering of substitutions follows the chain as printed.
T1: mouse IL-5 with His-tag (mouse, UniProt P04401 21-133)
T1 construct: Expressed transiently in HEK293E and captured from the supernatant by a murine anti-His antibody; not shown: His-tag
T1 sequence (looked up): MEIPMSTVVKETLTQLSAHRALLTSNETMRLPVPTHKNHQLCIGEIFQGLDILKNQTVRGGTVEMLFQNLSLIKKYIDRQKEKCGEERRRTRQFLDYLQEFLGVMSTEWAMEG

T2: rat IL-5 with His-tag (rat, UniProt Q08125 20-132)
T2 construct: Expressed transiently in HEK293E and captured from the supernatant by a murine anti-His antibody; not shown: His-tag
T2 sequence (looked up): T1 sequence (looked up) with T14I, A18T, M65I, R79G, R90K, Q93H, G113V

T3: guinea pig IL-5 with His-tag (guinea pig, UniProt O08987 20-135)
T3 construct: Expressed transiently in HEK293E and captured from the supernatant by a murine anti-His antibody; not shown: His-tag
T3 sequence (looked up): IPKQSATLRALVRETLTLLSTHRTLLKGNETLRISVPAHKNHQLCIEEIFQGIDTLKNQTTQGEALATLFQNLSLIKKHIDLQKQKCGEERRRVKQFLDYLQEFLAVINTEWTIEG

T4: rabbit IL-5 with His-tag (rabbit, UniProt G1SL79 20-134)
T4 construct: Expressed transiently in HEK293E and captured from the supernatant by a murine anti-His antibody
T4 sequence: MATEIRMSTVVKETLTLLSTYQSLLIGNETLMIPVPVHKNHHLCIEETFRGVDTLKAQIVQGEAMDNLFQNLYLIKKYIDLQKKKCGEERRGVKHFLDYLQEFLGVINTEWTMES

B1: hu39D10 (antibody, V domains shown)
VH: EVQLVESGGGLVQPGGSLRLSCAVSGLSLTSNSVNWIRQAPGKGLEWVGLIWSNGDTDYNSAIKSRFTISRDTSKSTVYLQMNSLRAEDTAVYYCAREYYGYFDYWGQGTLVTVSS
VL: DIQMTQSPSSLSASVGDRVTITCLASEGISSYLAWYQQKPGKAPKLLIYGANSLQTGVPSRFSGSGSATDYTLTISSLQPEDFATYYCQQSYKFPNTFGQGTKVEVKR
B2: humanized antibody No. 4-6 (4-6-Humanized) (antibody, human IgG1, kappa, V domains shown)
VH: QVQLVQSGAEVKKPGASVKVSCKASGYTFTNHHINWVRQAPGQGLEWIGYINPYNDYSRYNQKFKGRATLTVDKSTSTAYMELSSLRSEDTAVYYCARDYGNFWYFDVWGQGTLVTVSS
VL: DIQMTQSPSSLSASVGDRVTITCKASQDINSYLSWIQQKPGKAPKTLIHRADRLIDGVPSRFSGSGSGQDFTLTISSLQPEDFATYYCLQYDDFPYTFGQGTKVEIKR
notes: Human IgG1; Made in HEK293; also called 4-6-Humanized (293); 4-6-Humanized (CHO)
B3: control antibody 4-4-Humanized (antibody, human IgG1, V domains shown)
VH: QVQLVQSGAEVKKPGASVKVSCKASGYTFTDYYINWLRQAPGQGLEWIGWIYPGSGNTKYSEKFKDRATLTVDTSTSTVYMELSSLRSEDTAVYVCVRDGYYWYFDVWGQGTLVTVSS
VL: DIVMTQSPDSLAVSLGERATINCKSSQSLLNNYNQKNYLAWYQQKPGQPPKLLVYFTSTRESGVPDRFSGSGSGTDFTLTISSLQAEDVAVYFCQQHYSPPFTFGQGTKVEIK
B4: chimeric antibody No. 4-6 (4-6-Chimeric) (antibody, human IgG1, V domains shown)
VH: QVQLQQSGAELVRPGASVKISCKAFGYTFTNHHINWVQQRPGQGLDWIGYINPYNDYSRYNQKFKGKATLTVDKSSSTAYMELSGLTSEDSAVYYCARDYGNFWYFDVWGAGTTVTVSS
VL: DIKMTQSPSSMYASLGERVTITCKASQDINSYLSWIQQKPGKSPKTLIHRADRLIDGVPSRFSGSGSGQDFSLTISSLEYEDMGIYYCLQYDDFPYTFGGGTKLEIK

How the values were obtained:
[1] = molecular target: T5, human IL-5 protein (purchased from Beijing Yiqiao Shenzhou) (human, UniProt P05113 20-134); experiment: SPR Biacore T200, antibody captured on Protein A/G, IL-5 as analyte
T5 construct: Bought protein
From the text: The specific experimental method was as follows: A CM5 sensor chip (GE healthcare) was activated with a Amine Coupling Kit (GE healthcare) and the Protein A/G fusion protein (Thermo Pierce) was immobilized on the chip with an lable amount of 2000 RU. FC3 (Flow cell 3) was a reference channel, and FC4 (Flow cell 4) was a sample channel.

[2] = molecular target: T5, human IL-5 protein (purchased from …); experiment: cell-based or functional assay
[3] = molecular target: T1, mouse IL-5 with His-tag; experiment: ELISA, His-tagged IL-5 captured by anti-His antibody; mouse
From the text: (§1) IL-5 genes of rat, mouse, guinea pig and rabbit were synthesized and constructed into the pTT5 transient vector, respectively (All the sequences of the above genes are from http://www.uniprot.org, the mouse number is P04401, the rat number is Q08125, the guinea pig number is O08987, and the rabbit number is G1SL79), and then transiently expressed in HEK293E.

[4] = molecular target: T2, rat IL-5 with His-tag; experiment: ELISA, His-tagged IL-5 captured by anti-His antibody; rat
From the text: as §1

[5] = molecular target: T3, guinea pig IL-5 with His-tag; experiment: ELISA, His-tagged IL-5 captured by anti-His antibody; guinea pig
From the text: as §1

[6] = molecular target: T6, IL-5 mutant 104L to Alanine, with His-tag (human, UniProt P05113 20-134); experiment: capture ELISA: His-tagged IL-5 from HEK293E supernatant captured with murine anti-His antibody, detected with Goat-anti-Human-Fc-Specific-HRP; mean of four wells
T6 construct: Expressed transiently in HEK293E; used from the supernatant, captured by a murine anti-His antibody; not shown: His-tag

[7] = molecular target: T7, IL-5 mutant 91R to Alanine, with His-tag (human, UniProt P05113 20-134); experiment: as above
T7 construct: Expressed transiently in HEK293E; used from the supernatant, captured by a murine anti-His antibody; not shown: His-tag

[8] = molecular target: T8, IL-5 mutant 86C to Alanine, with His-tag (human, UniProt P05113 20-134); experiment: as above
T8 construct: Expressed transiently in HEK293E; used from the supernatant, captured by a murine anti-His antibody; not shown: His-tag

[9] = molecular target: T9, IL-5 mutant 90R to Alanine, with His-tag (human, UniProt P05113 20-134); experiment: as above
T9 construct: Expressed transiently in HEK293E; used from the supernatant, captured by a murine anti-His antibody; not shown: His-tag

[10] = molecular target: T10, IL-5 mutant 96F to Alanine, with His-tag (human, UniProt P05113 20-134); experiment: as above
T10 construct: Expressed transiently in HEK293E; used from the supernatant, captured by a murine anti-His antibody; not shown: His-tag

[11] = molecular target: T11, human IL-5-His-tag antigen (human, UniProt P05113 20-134); experiment: ELISA, His-tagged IL-5 captured by anti-His antibody; human
T11 construct: Made in HEK293

[12] = molecular target: T4, rabbit IL-5 with His-tag; experiment: ELISA, His-tagged IL-5 captured by anti-His antibody
From the text: as §1

[13] = molecular target: T12, human IL-5-hFc (human, UniProt P05113 20-134); experiment: blocking ELISA: plate coated with IL-5-hFc, antibody dilutions mixed with biotinylated IL-5RA-ECD-hFc (the blocked ligand), Streptavidin-HRP, OD450
T12 construct: not shown: Fc segment of human IgG1
Protocol: (§2) After incubation for a period of time, the plate was washed and Streptavidin-HRP was added finally for color development detection.

[14] = molecular target: T12, human IL-5-hFc; experiment: competition ELISA: IL-5-hFc coated, biotinylated IL-5RA-ECD-hFc as competitor
Protocol: as §2

Binder | Kd [1] | koff [1] | kon [1] | EC50 [3] | EC50 [4] | EC50 [5] | also measured
B1 | 0.0136 nM | 0.000156 s⁻¹ | 1.15e+07 M⁻¹ s⁻¹ | 0.0618 µg/mL | 0.132 µg/mL | 0.0531 µg/mL | IC50 for inhibiting IL-5-induced TF-1 cell proliferation (hu39D10) [2]: 0.0476 µg/mL; OD450 [6]: 0.11; OD450 [7]: 0.171; OD450 [8]: 0.13; OD450 [9]: 0.499; OD450 [10]: 0.456; EC50 [11]: 0.078 µg/mL
B2 | – | – | – | 0.0521 µg/mL | 2.13 µg/mL | 0.0558 µg/mL | binding result [12]: no binding
B3 | – | – | – | – | – | – | IC50 (read off the curve) [13]: ~4 µg/mL
B4 | 0.013 nM | 0.000196 s⁻¹ | 1.51e+07 M⁻¹ s⁻¹ | – | – | – | IC50 for inhibiting IL-5-induced TF-1 cell proliferation (4-6-Chimeric) [2]: 0.0289 µg/mL; IC50 [14]: 0.98 µg/mL

Source: patent US20210171621A1 (SUNSHINE GUOJIAN PHARMACEUTICAL SHANGHAI, published 2021)
